Test results reported in US20260201058A1 (SICHUAN HUIYU PHARMACEUTICAL, published 2026).
Substitutions are numbered along the chain they refer to.

B1: alpaca nanobody 3C6 (VHH)
VHH: EVQLVESGGGLVQAGESLRLSCAVSGNIGSIRHMGWHRQDPGKERELVATITTVGTTYYANFVKGRFTISRDNAKNTVYLQMNSLKPEDTGVYYCRATAHPTDYWGQGTQVTVSS
notes: also called anti-MSLN nanobody 3C6
B2: 3C6 hu-5 (Fc fusion)
chain: EVQLVESGGGLIQPGGSLRLSCAASGNIGSIRHMGWHRQAPGKERELVSTITTVGTTYYANFVKGRFTISRDNSKNTLYLQMNSLRAEDTAVYYCRATAHPTDYWGQGTLVTVSSGGGGSGGGGSDKTHTCPPCPAPEAAGAPSVFLFPPKPKDTLMISRTPEVTCVVVDVSHEDPEVKFNWYVDGVEVHNAKTKPREEQYNSTYRVVSVLTVLHQDWLNGKEYKCAVSNKALPAPIEKTISKAKGQPREPQVYTLPPSRDELTKNQVSLTCLVKGFYPSDIAVEWESNGQPENNYKTTPPVLDSDGSFFLYSKLTVDKSRWQQGNVFSCSVMHEALHNHYTQKSLSLSP
notes: Humanized VHH-Fc antibody: VHH, linker, human IgG1 Fc
B3: 3C6 hu-1 (Fc fusion)
chain: B2 chain with H37V, E44G, R45L, L47W
notes: as for B2
B4: 3C6 hu-4 (Fc fusion)
chain: B2 chain with E44G
notes: as for B2
B5: 3C6 hu-7 (Fc fusion)
chain: B2 chain with L47W, S49A
notes: as for B2
B6: 3C6 hu-8 (Fc fusion)
chain: B2 chain with H37V, S49A
notes: as for B2
B7: 3C6 hu-6 (Fc fusion)
chain: B2 chain with S49A
notes: as for B2
B8: 3C6 hu-2 (Fc fusion)
chain: B2 chain with E44G, R45L
notes: as for B2
B9: 3C6 hu-3 (Fc fusion)
chain: B2 chain with R45L
notes: as for B2
B10: 4A7 hu-5 (Fc fusion)
chain: EVQLLESGGGLVQPGGSLRLSCAASGRTFSTNVMGWFRQAPGKGLEFVSAISRAGSTYSADSVKGRFTISRDNSKNTLYLQMNSLRAEDTAVYYCAAGSSPTAIFGKSGMDYWGQGTQVTVSSGGGGSGGGGSDKTHTCPPCPAPEAAGAPSVFLFPPKPKDTLMISRTPEVTCVVVDVSHEDPEVKFNWYVDGVEVHNAKTKPREEQYNSTYRVVSVLTVLHQDWLNGKEYKCAVSNKALPAPIEKTISKAKGQPREPQVYTLPPSRDELTKNQVSLTCLVKGFYPSDIAVEWESNGQPENNYKTTPPVLDSDGSFFLYSKLTVDKSRWQQGNVFSCSVMHEALHNHYTQKSLSLSP
notes: Humanized VHH-Fc antibody
B11: 4A7 hu-13 (Fc fusion)
chain: B10 chain with T31S, N32Y
notes: Humanized VHH-Fc antibody
B12: 4A7 hu-15 (Fc fusion)
chain: B10 chain with T31S, N32Y, L45R
notes: Humanized VHH-Fc antibody
B13: 4A7 hu-1 (Fc fusion)
chain: B10 chain with G35S, F37V, F47W, S59Y
notes: Humanized VHH-Fc antibody
B14: 4A7 hu-7 (Fc fusion)
chain: B10 chain with L45R
notes: Humanized VHH-Fc antibody
B15: 4A7 hu-14 (Fc fusion)
chain: B10 chain with P14A, T31S, N32Y
notes: Humanized VHH-Fc antibody
B16: 4A7 hu-3 (Fc fusion)
chain: B10 chain with F47W
notes: Humanized VHH-Fc antibody
B17: 4A7 hu-4 (Fc fusion)
chain: B10 chain with F37V
notes: Humanized VHH-Fc antibody
B18: 4A7 hu-16 (Fc fusion)
chain: B10 chain with T31S, N32Y, G44E, L45R
notes: Humanized VHH-Fc antibody
B19: 4A7 hu-6 (Fc fusion)
chain: B10 chain with P14A
notes: Humanized VHH-Fc antibody
B20: 4A7 hu-9 (Fc fusion)
chain: B10 chain with T31S, N32Y, G35S, F37V, F47W, S59Y
notes: Humanized VHH-Fc antibody
B21: 4A7 hu-11 (Fc fusion)
chain: B10 chain with T31S, N32Y, F47W
notes: Humanized VHH-Fc antibody
B22: 4A7 hu-12 (Fc fusion)
chain: B10 chain with T31S, N32Y, F37V
notes: Humanized VHH-Fc antibody
B23: 4A7 hu-8 (Fc fusion)
chain: B10 chain with G44E, L45R
notes: Humanized VHH-Fc antibody
B24: 4A7 hu-2 (Fc fusion)
chain: B10 chain with F37V, F47W
notes: Humanized VHH-Fc antibody
B25: 4A7 hu-10 (Fc fusion)
chain: B10 chain with T31S, N32Y, F37V, F47W
notes: Humanized VHH-Fc antibody

Each binder was assayed against T1, cynoMSLN-Fc (Kactus Biosystems, MSL-CM280) (cyno (monkey)) (assay: Carterra HC30M chip, antibody captured via anti-DYKDDDDK, antigen as analyte).
T1 construct: Bought protein; also called monkey MSLN
Method: (§1) The anti-[…] antibody was bound to the HC30M chip via amino coupling, and then 2 μg/mL of MSLN single-domain antibody was captured. After the baseline was stabilized, gradient diluted huMSLN-Fc (Kactus Biosystems, MSL-HM280) and cynoMSLN-Fc (Kactus Biosystems, MSL-CM280) (starting from 100 nM, gradient dilution) were flowed through the chip from low to high concentrations, respectively, with a binding time of 8 minutes and a dissociation time of 20 minutes. Kinetic constants were obtained by fitting with Carteria software.

Row | Kd | koff | kon | Binder
1 | 1.04 nM | 4.69e-05 s⁻¹ | 45300 M⁻¹ s⁻¹ | B1
2 | 1.66 nM | 0.000914 s⁻¹ | 551000 M⁻¹ s⁻¹ | B2
3 | 3.67 nM | 0.00151 s⁻¹ | 412000 M⁻¹ s⁻¹ | B3
4 | 5.58 nM | 0.00285 s⁻¹ | 511000 M⁻¹ s⁻¹ | B4
5 | 4.79 nM | 0.00244 s⁻¹ | 510000 M⁻¹ s⁻¹ | B5
6 | 17.3 nM | 0.0165 s⁻¹ | 956000 M⁻¹ s⁻¹ | B6
7 | 1.78 nM | 0.00115 s⁻¹ | 644000 M⁻¹ s⁻¹ | B7
8 | 11.4 nM | 0.00426 s⁻¹ | 374000 M⁻¹ s⁻¹ | B8
9 | 2.74 nM | 0.00125 s⁻¹ | 455000 M⁻¹ s⁻¹ | B9

What follows are binders tested against T2, hFc-tagged human MSLN recombinant protein (huMSLN-hFc, Kactus Biosystems, MSL-HM280) (human, UniProt Q13421 296-580) in the same assay as above.
T2 construct: Bought protein; also called huMSLN-Fc; human MSLN-Fc
Method: as §1

T2 sequence (Q13421 other isoform, or with tags, fused parts or gaps): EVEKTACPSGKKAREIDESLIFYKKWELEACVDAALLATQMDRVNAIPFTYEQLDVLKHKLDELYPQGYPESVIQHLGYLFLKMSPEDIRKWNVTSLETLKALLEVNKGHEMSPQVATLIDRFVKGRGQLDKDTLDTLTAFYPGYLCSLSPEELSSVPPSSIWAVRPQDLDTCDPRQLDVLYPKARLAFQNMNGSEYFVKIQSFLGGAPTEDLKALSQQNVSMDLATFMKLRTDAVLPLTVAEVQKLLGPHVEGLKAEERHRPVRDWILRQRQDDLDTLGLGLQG

Row | Kd | koff | kon | Binder
10 | 5.66 nM | 0.000304 s⁻¹ | 53600 M⁻¹ s⁻¹ | B1
11 | 2.26 nM | 0.00175 s⁻¹ | 772000 M⁻¹ s⁻¹ | B2
12 | 2.69 nM | 0.00187 s⁻¹ | 695000 M⁻¹ s⁻¹ | B3
13 | 4.89 nM | 0.00471 s⁻¹ | 963000 M⁻¹ s⁻¹ | B4
14 | 4.94 nM | 0.00277 s⁻¹ | 560000 M⁻¹ s⁻¹ | B5
15 | 12 nM | 0.0315 s⁻¹ | 2.63e+06 M⁻¹ s⁻¹ | B6
16 | 2.25 nM | 0.00185 s⁻¹ | 820000 M⁻¹ s⁻¹ | B7
17 | 13.5 nM | 0.00732 s⁻¹ | 540000 M⁻¹ s⁻¹ | B8
18 | 3.56 nM | 0.00218 s⁻¹ | 611000 M⁻¹ s⁻¹ | B9

What follows are binders tested against T3, monkey PD-L1 protein (Kactus Biosystems, PDL-CM210) (monkey) (assay: Carterra HC30M chip, antibody captured via anti-DYKDDDDK, PD-L1 as analyte).
T3 construct: Bought protein; also called Monkey PDL1-Fc
Method: (§2) The anti-[…] antibody was bound to the HC30M chip via amino coupling, then 2 μg/mL of humanized PD-L1 single-domain antibody was captured. […] Kinetic constants were obtained by fitting with Carteria software.

Row | Kd | Binder
19 | 94.3 nM | B10
20 | 72.8 nM | B11
21 | 60.7 nM | B12
22 | 1320 nM | B13
23 | 61.7 nM | B14
24 | 76.5 nM | B15
25 | 599 nM | B16
26 | 112 nM | B17
27 | 75.3 nM | B18
28 | 99 nM | B19
29 | 609 nM | B20
30 | 828 nM | B21
31 | 94.5 nM | B22
32 | 57.5 nM | B23
33 | 367 nM | B24
34 | 622 nM | B25

Each binder was assayed against T4, human PD-L1 protein (ACRO, PD1-H5258) (human, UniProt Q9NZQ7 19-238) in the same assay as above.
T4 construct: Bought protein; also called Human PDL1-Fc
Method: as §2

T4 sequence (Q9NZQ7 19-238): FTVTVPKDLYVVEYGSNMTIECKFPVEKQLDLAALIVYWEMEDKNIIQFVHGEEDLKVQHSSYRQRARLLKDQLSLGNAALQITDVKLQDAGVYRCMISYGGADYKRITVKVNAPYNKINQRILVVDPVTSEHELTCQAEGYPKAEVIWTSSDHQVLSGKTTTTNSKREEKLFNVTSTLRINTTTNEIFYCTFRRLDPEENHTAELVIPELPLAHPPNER

Row | Kd | Binder
35 | 141 nM | B10
36 | 58.7 nM | B11
37 | 54.9 nM | B12
38 | 127 nM | B14
39 | 60.9 nM | B15
40 | 1630 nM | B16
41 | 175 nM | B17
42 | 45.1 nM | B18
43 | 136 nM | B19
44 | 652 nM | B20
45 | 796 nM | B21
46 | 79 nM | B22
47 | 92.7 nM | B23
48 | 805 nM | B25

Each binder was assayed against T5, mouse PD-L1 protein (ACRO, PD1-M5251) (mouse, UniProt Q9EP73 19-238) in the same assay as above.
T5 construct: Bought protein; also called Mouse PDL1-Fc
Method: as §2

T5 sequence (Q9EP73 19-238): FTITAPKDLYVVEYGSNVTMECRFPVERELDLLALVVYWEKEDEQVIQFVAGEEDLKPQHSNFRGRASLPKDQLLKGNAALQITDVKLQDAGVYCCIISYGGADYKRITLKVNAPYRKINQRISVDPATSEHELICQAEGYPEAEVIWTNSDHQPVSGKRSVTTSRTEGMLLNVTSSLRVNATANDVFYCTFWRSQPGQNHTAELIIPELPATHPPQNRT

Row | Kd | Binder
49 | 9.72 nM | B10
50 | 10.7 nM | B11
51 | 9.97 nM | B12
52 | 143 nM | B13
53 | 9.76 nM | B14
54 | 9.7 nM | B15
55 | 122 nM | B16
56 | 21 nM | B17
57 | 9.82 nM | B18
58 | 9.59 nM | B19
59 | 146 nM | B20
60 | 154 nM | B21
61 | 19.5 nM | B22
62 | 10.4 nM | B23
63 | 408 nM | B24
64 | 197 nM | B25
